Experimental data from the supplement of paper PMC9112550, “Optimization of the antimicrobial peptide Bac7 by deep mutational scanning” (BMC Biology, 2022).
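Also: peptides expressed intracellularly from a pBAD plasmid library in pooled LB shake-flask culture, induced with 0.3% L-arabinose, DNA abundance read by NGS, three biological replicates, DESeq2 with apeglm shrinkage.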

The sequences below were run on Escherichia coli TOP10 (assay: shrunken log2 fold change of peptide-encoding DNA abundance (4.5 h post-induction vs induction); higher = less antimicrobial activity (less host growth inhibition)). Details: time post-induction: 4.5 h; library: site-saturation at positions 5, 18, 19, 20.
With RRIRWRPPRLPRPRPRPVAAPRP the “shrunken log2 fold change” value was 0.855. In the case of RRIRWRPPRLPRPRPRPVAMPRP, the “shrunken log2 fold change” value is reported as 0.427. In the case of RRIRWRPPRLPRPRPRPVCMPRP, the “shrunken log2 fold change” value is reported as 0.193. For RRIRWRPPRLPRPRPRPVDEPRP, the “shrunken log2 fold change” value was 0.0343. In the case of RRIRWRPPRLPRPRPRPVFEPRP, the “shrunken log2 fold change” value is reported as 0.333. In the case of RRIRWRPPRLPRPRPRPVHAPRP, the “shrunken log2 fold change” value is reported as 0.109. RRIRWRPPRLPRPRPRPVHCPRP was tested, and the “shrunken log2 fold change” value was -0.162. With RRIRWRPPRLPRPRPRPVHEPRP the “shrunken log2 fold change” value was 0.21. RRIRWRPPRLPRPRPRPVHYPRP was tested, and the “shrunken log2 fold change” value was -0.0467. In the case of RRIRWRPPRLPRPRPRPVLQPRP, the “shrunken log2 fold change” value is reported as 0.177. With RRIRWRPPRLPRPRPRPVLYPRP the “shrunken log2 fold change” value was 0.0298. RRIRWRPPRLPRPRPRPVMWPRP was tested, and the “shrunken log2 fold change” value was 0.236. For RRIRWRPPRLPRPRPRPVPKPRP, the “shrunken log2 fold change” value was 0.524. RRIRWRPPRLPRPRPRPVQGPRP was tested, and the “shrunken log2 fold change” value was -0.124. In the case of RRIRWRPPRLPRPRPRPVQQPRP, the “shrunken log2 fold change” value is reported as -0.0911. RRIRWRPPRLPRPRPRPVQTPRP was tested, and the “shrunken log2 fold change” value was 0.459. With RRIRWRPPRLPRPRPRPVTSPRP the “shrunken log2 fold change” value was 0.112. For RRIRWRPPRLPRPRPRPVWDPRP, the “shrunken log2 fold change” value was 0.177. RRIRWRPPRLPRPRPRPVYDPRP was tested, and the “shrunken log2 fold change” value was -0.15. RRIRWRPPRLPRPRPRPWACPRP was tested, and the “shrunken log2 fold change” value was 0.0611. For RRIRWRPPRLPRPRPRPWCEPRP, the “shrunken log2 fold change” value was -0.372. In the case of RRIRWRPPRLPRPRPRPWFAPRP, the “shrunken log2 fold change” value is reported as 0.135. For RRIRWRPPRLPRPRPRPWFDPRP, the “shrunken log2 fold change” value was 2.76. With RRIRWRPPRLPRPRPRPWFGPRP the “shrunken log2 fold change” value was -0.0254. For RRIRWRPPRLPRPRPRPWGWPRP, the “shrunken log2 fold change” value was 0.276. RRIRWRPPRLPRPRPRPWKWPRP was tested, and the “shrunken log2 fold change” value was -0.0893. For RRIRWRPPRLPRPRPRPWLIPRP, the “shrunken log2 fold change” value was 0.112. For RRIRWRPPRLPRPRPRPWNIPRP, the “shrunken log2 fold change” value was -0.0879. With RRIRWRPPRLPRPRPRPWNPPRP the “shrunken log2 fold change” value was -0.219. For RRIRWRPPRLPRPRPRPWNSPRP, the “shrunken log2 fold change” value was 0.0293. For RRIRWRPPRLPRPRPRPWPCPRP, the “shrunken log2 fold change” value was 0.0272. With RRIRWRPPRLPRPRPRPWPEPRP the “shrunken log2 fold change” value was 0.167. In the case of RRIRWRPPRLPRPRPRPWQDPRP, the “shrunken log2 fold change” value is reported as -0.00695. For RRIRWRPPRLPRPRPRPWQNPRP, the “shrunken log2 fold change” value was -0.159. For RRIRWRPPRLPRPRPRPWRYPRP, the “shrunken log2 fold change” value was -0.262. RRIRWRPPRLPRPRPRPWSPPRP was tested, and the “shrunken log2 fold change” value was -0.0542. With RRIRWRPPRLPRPRPRPWSVPRP the “shrunken log2 fold change” value was -0.174. RRIRWRPPRLPRPRPRPWTLPRP was tested, and the “shrunken log2 fold change” value was -0.0248. For RRIRWRPPRLPRPRPRPWVGPRP, the “shrunken log2 fold change” value was 0.207. In the case of RRIRWRPPRLPRPRPRPWVMPRP, the “shrunken log2 fold change” value is reported as -0.129. With RRIRWRPPRLPRPRPRPYCDPRP the “shrunken log2 fold change” value was -0.218. In the case of RRIRWRPPRLPRPRPRPYDDPRP, the “shrunken log2 fold change” value is reported as -0.321. In the case of RRIRWRPPRLPRPRPRPYDIPRP, the “shrunken log2 fold change” value is reported as -0.00748. RRIRWRPPRLPRPRPRPYDRPRP was tested, and the “shrunken log2 fold change” value was 0.0155. In the case of RRIRWRPPRLPRPRPRPYEDPRP, the “shrunken log2 fold change” value is reported as -0.231. With RRIRWRPPRLPRPRPRPYEFPRP the “shrunken log2 fold change” value was -0.00843. With RRIRWRPPRLPRPRPRPYEPPRP the “shrunken log2 fold change” value was -0.261. With RRIRWRPPRLPRPRPRPYEVPRP the “shrunken log2 fold change” value was -0.114. With RRIRWRPPRLPRPRPRPYHYPRP the “shrunken log2 fold change” value was 0.0463. In the case of RRIRWRPPRLPRPRPRPYIHPRP, the “shrunken log2 fold change” value is reported as -0.405. For RRIRWRPPRLPRPRPRPYKEPRP, the “shrunken log2 fold change” value was -0.387. With RRIRWRPPRLPRPRPRPYLEPRP the “shrunken log2 fold change” value was -0.112. RRIRWRPPRLPRPRPRPYMGPRP was tested, and the “shrunken log2 fold change” value was -0.106. RRIRWRPPRLPRPRPRPYMLPRP was tested, and the “shrunken log2 fold change” value was -0.298. For RRIRWRPPRLPRPRPRPYNLPRP, the “shrunken log2 fold change” value was -0.991. For RRIRWRPPRLPRPRPRPYNTPRP, the “shrunken log2 fold change” value was -0.162. For RRIRWRPPRLPRPRPRPYPEPRP, the “shrunken log2 fold change” value was -0.224. With RRIRWRPPRLPRPRPRPYPLPRP the “shrunken log2 fold change” value was -0.0066. RRIRWRPPRLPRPRPRPYQDPRP was tested, and the “shrunken log2 fold change” value was -0.411. In the case of RRIRWRPPRLPRPRPRPYQMPRP, the “shrunken log2 fold change” value is reported as -0.0321. For RRIRWRPPRLPRPRPRPYSLPRP, the “shrunken log2 fold change” value was -0.201. For RRIRWRPPRLPRPRPRPYVRPRP, the “shrunken log2 fold change” value was -0.0178. With RRIRWRPPRLPRPRPRPYVTPRP the “shrunken log2 fold change” value was -0.385. In the case of RRIRWRPPRLPRPRPRPYWVPRP, the “shrunken log2 fold change” value is reported as -0.294. For RRIRWRPPRLPRPRPRPYYCPRP, the “shrunken log2 fold change” value was -0.00583. For RRIRWRPPRLPRPRPRPYYTPRP, the “shrunken log2 fold change” value was -0.899. With RRIRYRPPRLPRPRPRPADDPRP the “shrunken log2 fold change” value was -0.0179. RRIRYRPPRLPRPRPRPAEDPRP was tested, and the “shrunken log2 fold change” value was -0.176. RRIRYRPPRLPRPRPRPAFSPRP was tested, and the “shrunken log2 fold change” value was 0.0115. With RRIRYRPPRLPRPRPRPAFTPRP the “shrunken log2 fold change” value was -0.639. With RRIRYRPPRLPRPRPRPAGAPRP the “shrunken log2 fold change” value was 0.421. With RRIRYRPPRLPRPRPRPAGEPRP the “shrunken log2 fold change” value was -0.148. In the case of RRIRYRPPRLPRPRPRPAGGPRP, the “shrunken log2 fold change” value is reported as 0.148. With RRIRYRPPRLPRPRPRPAGIPRP the “shrunken log2 fold change” value was -0.359. RRIRYRPPRLPRPRPRPAHIPRP was tested, and the “shrunken log2 fold change” value was -0.467. For RRIRYRPPRLPRPRPRPAIKPRP, the “shrunken log2 fold change” value was -0.411. RRIRYRPPRLPRPRPRPAISPRP was tested, and the “shrunken log2 fold change” value was -0.149. With RRIRYRPPRLPRPRPRPAKDPRP the “shrunken log2 fold change” value was -0.151. RRIRYRPPRLPRPRPRPAKEPRP was tested, and the “shrunken log2 fold change” value was 0.0142. In the case of RRIRYRPPRLPRPRPRPALVPRP, the “shrunken log2 fold change” value is reported as 0.112. RRIRYRPPRLPRPRPRPALYPRP was tested, and the “shrunken log2 fold change” value was -0.284. RRIRYRPPRLPRPRPRPAMLPRP was tested, and the “shrunken log2 fold change” value was -0.372. For RRIRYRPPRLPRPRPRPAMTPRP, the “shrunken log2 fold change” value was 0.165. In the case of RRIRYRPPRLPRPRPRPANHPRP, the “shrunken log2 fold change” value is reported as -0.463. RRIRYRPPRLPRPRPRPANPPRP was tested, and the “shrunken log2 fold change” value was -0.422. In the case of RRIRYRPPRLPRPRPRPAPIPRP, the “shrunken log2 fold change” value is reported as 0.226. For RRIRYRPPRLPRPRPRPAQSPRP, the “shrunken log2 fold change” value was 0.256. With RRIRYRPPRLPRPRPRPARFPRP the “shrunken log2 fold change” value was 0.181. For RRIRYRPPRLPRPRPRPASYPRP, the “shrunken log2 fold change” value was -0.156. With RRIRYRPPRLPRPRPRPATFPRP the “shrunken log2 fold change” value was -0.681. With RRIRYRPPRLPRPRPRPAVSPRP the “shrunken log2 fold change” value was 0.0627. RRIRYRPPRLPRPRPRPAWWPRP was tested, and the “shrunken log2 fold change” value was 0.365. For RRIRYRPPRLPRPRPRPAYFPRP, the “shrunken log2 fold change” value was -0.782. In the case of RRIRYRPPRLPRPRPRPCAYPRP, the “shrunken log2 fold change” value is reported as -0.0775. For RRIRYRPPRLPRPRPRPCCIPRP, the “shrunken log2 fold change” value was -0.129. For RRIRYRPPRLPRPRPRPCCKPRP, the “shrunken log2 fold change” value was 0.0599. With RRIRYRPPRLPRPRPRPCCQPRP the “shrunken log2 fold change” value was 0.0173. For RRIRYRPPRLPRPRPRPCDAPRP, the “shrunken log2 fold change” value was -0.255. RRIRYRPPRLPRPRPRPCEYPRP was tested, and the “shrunken log2 fold change” value was -0.138. With RRIRYRPPRLPRPRPRPCFDPRP the “shrunken log2 fold change” value was -0.808. In the case of RRIRYRPPRLPRPRPRPCFKPRP, the “shrunken log2 fold change” value is reported as -0.328. With RRIRYRPPRLPRPRPRPCGHPRP the “shrunken log2 fold change” value was -0.0238. In the case of RRIRYRPPRLPRPRPRPCIYPRP, the “shrunken log2 fold change” value is reported as -0.207. In the case of RRIRYRPPRLPRPRPRPCLMPRP, the “shrunken log2 fold change” value is reported as -0.225. In the case of RRIRYRPPRLPRPRPRPCMNPRP, the “shrunken log2 fold change” value is reported as -0.0223. RRIRYRPPRLPRPRPRPCMRPRP was tested, and the “shrunken log2 fold change” value was -0.091. RRIRYRPPRLPRPRPRPCMSPRP was tested, and the “shrunken log2 fold change” value was -0.282. RRIRYRPPRLPRPRPRPCNNPRP was tested, and the “shrunken log2 fold change” value was -0.331. RRIRYRPPRLPRPRPRPCPAPRP was tested, and the “shrunken log2 fold change” value was -0.772.
